{
  "source": "paper PMC9482650",
  "about": "“Quantitative fragmentomics allow affinity mapping of interactomes” (Nature Communications, 2022)",
  "data": [
    {"molecular_target": "DLG1_1, Q12959", "assay": "holdup assay", "design": "key: below the threshold = too weak to quantify, mostly under pKd 3.1 to 4", "conditions": "plain residues with an end cap or a label only (N-terminal biotin on a linker: ado-ado)", "values": [
      {"binder": "RTQSSDSAYV", "note": "[GJD2, Q9UKL4]", "pKd": "below the threshold"}
    ]},
    {"molecular_target": "SCRIB_3, Q14160", "sequence (Q14160 999-1103)": "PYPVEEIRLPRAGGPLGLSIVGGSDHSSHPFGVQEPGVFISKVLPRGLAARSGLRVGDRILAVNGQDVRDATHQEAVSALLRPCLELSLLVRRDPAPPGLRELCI", "assay": "holdup assay", "design": "key: below the threshold = too weak to quantify, mostly under pKd 3.1 to 4", "conditions": "plain residues with an end cap or a label only (N-terminal biotin on a linker: ado-ado)", "values": [
      {"binder": "RTQSSDSAYV", "note": "[GJD2, Q9UKL4]", "pKd": "below the threshold"}
    ]},
    {"molecular_target": "T1, NHERF3_4, Q5T2W1", "T1 sequence (Q5T2W1 373-468, limits assumed, looked up)": "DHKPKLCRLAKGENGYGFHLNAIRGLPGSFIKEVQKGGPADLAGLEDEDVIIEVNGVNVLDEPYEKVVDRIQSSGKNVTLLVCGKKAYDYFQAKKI", "assay": "holdup assay", "design": "key: below the threshold = too weak to quantify, mostly under pKd 3.1 to 4", "conditions": "plain residues with an end cap or a label only (N-terminal biotin on a linker: ado-ado)", "values": [
      {"binder": "RTQSSDSAYV", "note": "[GJD2, Q9UKL4]", "pKd": 3.54}
    ]},
    {"molecular_target": "TJP2_1, Q9UDY2", "sequence (Q9UDY2 24-128)": "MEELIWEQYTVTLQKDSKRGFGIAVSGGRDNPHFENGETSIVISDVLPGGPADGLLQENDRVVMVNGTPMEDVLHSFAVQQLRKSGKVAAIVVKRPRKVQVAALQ", "assay": "holdup assay", "design": "key: below the threshold = too weak to quantify, mostly under pKd 3.1 to 4", "conditions": "plain residues with an end cap or a label only (N-terminal biotin on a linker: ado-ado)", "values": [
      {"binder": "RTQSSDSAYV", "note": "[GJD2, Q9UKL4]", "pKd": 4.09}
    ]},
    {"molecular_target": "SCRIB_1, Q14160", "sequence (Q14160 718-814)": "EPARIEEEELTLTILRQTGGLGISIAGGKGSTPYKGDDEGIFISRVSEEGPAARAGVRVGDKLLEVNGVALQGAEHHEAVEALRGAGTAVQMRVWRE", "assay": "holdup assay", "design": "key: below the threshold = too weak to quantify, mostly under pKd 3.1 to 4", "conditions": "plain residues with an end cap or a label only (N-terminal biotin on a linker: ado-ado)", "values": [
      {"binder": "RTQSSDSAYV", "note": "[GJD2, Q9UKL4]", "pKd": "below the threshold"}
    ]},
    {"molecular_target": "Inadl_2, Q8NI35", "sequence (Q8NI35 238-335)": "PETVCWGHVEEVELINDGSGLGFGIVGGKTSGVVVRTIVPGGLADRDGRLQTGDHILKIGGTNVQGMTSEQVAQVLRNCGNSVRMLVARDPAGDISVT", "assay": "holdup assay", "design": "key: below the threshold = too weak to quantify, mostly under pKd 3.1 to 4", "conditions": "plain residues with an end cap or a label only (N-terminal biotin on a linker: ado-ado)", "values": [
      {"binder": "RTQSSDSAYV", "note": "[GJD2, Q9UKL4]", "pKd": "below the threshold"}
    ]},
    {"molecular_target": "SNX27, Q96L92", "assay": "holdup assay", "design": "key: below the threshold = too weak to quantify, mostly under pKd 3.1 to 4", "conditions": "plain residues with an end cap or a label only (N-terminal biotin on a linker: ado-ado)", "values": [
      {"binder": "RTQSSDSAYV", "note": "[GJD2, Q9UKL4]", "pKd": 4.13}
    ]},
    {"molecular_target": "T2, MPDZ_12, O75970", "T2 sequence (O75970 1857-1958, limits assumed, looked up)": "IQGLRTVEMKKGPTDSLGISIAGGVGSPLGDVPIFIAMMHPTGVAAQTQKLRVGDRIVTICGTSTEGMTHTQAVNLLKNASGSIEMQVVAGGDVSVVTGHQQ", "assay": "holdup assay", "design": "key: below the threshold = too weak to quantify, mostly under pKd 3.1 to 4", "conditions": "plain residues with an end cap or a label only (N-terminal biotin on a linker: ado-ado)", "values": [
      {"binder": "RTQSSDSAYV", "note": "[GJD2, Q9UKL4]", "pKd": "below the threshold"}
    ]},
    {"molecular_target": "T3, PARD3B_1, Q8TEW8", "T3 sequence (Q8TEW8 196-299, limits assumed, looked up)": "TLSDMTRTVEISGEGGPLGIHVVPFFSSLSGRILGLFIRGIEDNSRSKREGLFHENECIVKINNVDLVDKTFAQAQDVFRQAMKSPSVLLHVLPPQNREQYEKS", "assay": "holdup assay", "design": "key: below the threshold = too weak to quantify, mostly under pKd 3.1 to 4", "conditions": "plain residues with an end cap or a label only (N-terminal biotin on a linker: ado-ado)", "values": [
      {"binder": "RTQSSDSAYV", "note": "[GJD2, Q9UKL4]", "pKd": 4.63}
    ]},
    {"molecular_target": "T4, DLG3_3, Q92796", "T4 sequence (Q92796 374-475, limits assumed, looked up)": "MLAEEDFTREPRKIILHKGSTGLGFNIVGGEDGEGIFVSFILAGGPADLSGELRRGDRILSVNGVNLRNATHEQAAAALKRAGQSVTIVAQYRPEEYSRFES", "assay": "holdup assay", "design": "key: below the threshold = too weak to quantify, mostly under pKd 3.1 to 4", "conditions": "plain residues with an end cap or a label only (N-terminal biotin on a linker: ado-ado)", "values": [
      {"binder": "RTQSSDSAYV", "note": "[GJD2, Q9UKL4]", "pKd": "below the threshold"}
    ]},
    {"molecular_target": "T5, DFNB31_2, Q9P202", "T5 sequence (Q9P202 274-371, limits assumed, looked up)": "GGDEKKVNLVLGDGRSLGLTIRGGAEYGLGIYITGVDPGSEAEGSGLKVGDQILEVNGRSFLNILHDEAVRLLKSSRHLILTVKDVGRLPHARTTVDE", "assay": "holdup assay", "design": "key: below the threshold = too weak to quantify, mostly under pKd 3.1 to 4", "conditions": "plain residues with an end cap or a label only (N-terminal biotin on a linker: ado-ado)", "values": [
      {"binder": "RTQSSDSAYV", "note": "[GJD2, Q9UKL4]", "pKd": "below the threshold"}
    ]},
    {"molecular_target": "MAST2, Q6P0Q8", "sequence (Q6P0Q8 1099-1202)": "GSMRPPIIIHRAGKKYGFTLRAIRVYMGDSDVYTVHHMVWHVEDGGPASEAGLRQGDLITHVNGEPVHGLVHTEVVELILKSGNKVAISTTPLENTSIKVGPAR", "assay": "holdup assay", "design": "key: below the threshold = too weak to quantify, mostly under pKd 3.1 to 4", "conditions": "plain residues with an end cap or a label only (N-terminal biotin on a linker: ado-ado)", "values": [
      {"binder": "RTQSSDSAYV", "note": "[GJD2, Q9UKL4]", "pKd": 4.17}
    ]},
    {"molecular_target": "T6, DFNB31_3, Q9P202", "T6 sequence (Q9P202 811-907, limits assumed, looked up)": "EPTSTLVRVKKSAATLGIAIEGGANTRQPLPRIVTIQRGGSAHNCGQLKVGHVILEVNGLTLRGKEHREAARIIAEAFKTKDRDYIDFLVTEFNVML", "assay": "holdup assay", "design": "key: below the threshold = too weak to quantify, mostly under pKd 3.1 to 4", "conditions": "plain residues with an end cap or a label only (N-terminal biotin on a linker: ado-ado)", "values": [
      {"binder": "RTQSSDSAYV", "note": "[GJD2, Q9UKL4]", "pKd": "below the threshold"}
    ]},
    {"molecular_target": "T7, GRIP1_5, Q9Y3R0", "T7 sequence (Q9Y3R0 568-668, limits assumed, looked up)": "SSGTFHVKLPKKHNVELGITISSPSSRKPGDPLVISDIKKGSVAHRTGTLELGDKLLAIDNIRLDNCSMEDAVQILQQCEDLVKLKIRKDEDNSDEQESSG", "assay": "holdup assay", "design": "key: below the threshold = too weak to quantify, mostly under pKd 3.1 to 4", "conditions": "plain residues with an end cap or a label only (N-terminal biotin on a linker: ado-ado)", "values": [
      {"binder": "RTQSSDSAYV", "note": "[GJD2, Q9UKL4]", "pKd": "below the threshold"}
    ]},
    {"molecular_target": "T8, PDZD2_2, O15018", "T8 sequence (O15018 329-429, limits assumed, looked up)": "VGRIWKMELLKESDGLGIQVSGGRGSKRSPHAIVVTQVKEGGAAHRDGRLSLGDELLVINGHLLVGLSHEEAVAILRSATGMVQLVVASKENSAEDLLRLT", "assay": "holdup assay", "design": "key: below the threshold = too weak to quantify, mostly under pKd 3.1 to 4", "conditions": "plain residues with an end cap or a label only (N-terminal biotin on a linker: ado-ado)", "values": [
      {"binder": "RTQSSDSAYV", "note": "[GJD2, Q9UKL4]", "pKd": 5.15}
    ]},
    {"molecular_target": "GRIP2_5, Q9C0E4", "sequence (Q9C0E4 544-642)": "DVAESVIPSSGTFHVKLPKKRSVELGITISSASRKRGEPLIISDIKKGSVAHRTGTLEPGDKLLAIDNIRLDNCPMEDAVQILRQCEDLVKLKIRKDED", "assay": "holdup assay", "design": "key: below the threshold = too weak to quantify, mostly under pKd 3.1 to 4", "conditions": "plain residues with an end cap or a label only (N-terminal biotin on a linker: ado-ado)", "values": [
      {"binder": "RTQSSDSAYV", "note": "[GJD2, Q9UKL4]", "pKd": "below the threshold"}
    ]},
    {"molecular_target": "PDZRN4_1, Q6ZMN7", "sequence (Q6ZMN7 213-318)": "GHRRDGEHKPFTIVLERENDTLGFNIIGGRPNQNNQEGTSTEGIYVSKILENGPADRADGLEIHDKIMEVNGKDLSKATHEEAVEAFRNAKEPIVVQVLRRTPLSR", "assay": "holdup assay", "design": "key: below the threshold = too weak to quantify, mostly under pKd 3.1 to 4", "conditions": "plain residues with an end cap or a label only (N-terminal biotin on a linker: ado-ado)", "values": [
      {"binder": "RTQSSDSAYV", "note": "[GJD2, Q9UKL4]", "pKd": "below the threshold"}
    ]},
    {"molecular_target": "T9, RAPGEF6, Q8TEU7", "T9 sequence (Q8TEU7 525-625, limits assumed, looked up)": "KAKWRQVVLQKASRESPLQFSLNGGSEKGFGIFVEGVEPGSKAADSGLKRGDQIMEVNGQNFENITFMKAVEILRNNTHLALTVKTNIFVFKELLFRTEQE", "assay": "holdup assay", "design": "key: below the threshold = too weak to quantify, mostly under pKd 3.1 to 4", "conditions": "plain residues with an end cap or a label only (N-terminal biotin on a linker: ado-ado)", "values": [
      {"binder": "RTQSSDSAYV", "note": "[GJD2, Q9UKL4]", "pKd": "below the threshold"}
    ]},
    {"molecular_target": "T10, LIN7B, Q9HAP6", "T10 sequence (Q9HAP6 88-185, limits assumed, looked up)": "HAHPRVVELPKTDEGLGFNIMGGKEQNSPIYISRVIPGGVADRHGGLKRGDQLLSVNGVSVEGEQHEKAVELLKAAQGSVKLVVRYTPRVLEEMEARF", "assay": "holdup assay", "design": "key: below the threshold = too weak to quantify, mostly under pKd 3.1 to 4", "conditions": "plain residues with an end cap or a label only (N-terminal biotin on a linker: ado-ado)", "values": [
      {"binder": "RTQSSDSAYV", "note": "[GJD2, Q9UKL4]", "pKd": "below the threshold"}
    ]},
    {"molecular_target": "T11, LRRC7, Q96NW7", "T11 sequence (Q96NW7 1440-1537, limits assumed, looked up)": "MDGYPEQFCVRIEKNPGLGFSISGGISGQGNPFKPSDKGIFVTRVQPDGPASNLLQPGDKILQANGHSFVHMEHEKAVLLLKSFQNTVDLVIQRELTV", "assay": "holdup assay", "design": "key: below the threshold = too weak to quantify, mostly under pKd 3.1 to 4", "conditions": "plain residues with an end cap or a label only (N-terminal biotin on a linker: ado-ado)", "values": [
      {"binder": "RTQSSDSAYV", "note": "[GJD2, Q9UKL4]", "pKd": "below the threshold"}
    ]},
    {"molecular_target": "NHERF2_2, Q15599", "sequence (Q15599 142-238)": "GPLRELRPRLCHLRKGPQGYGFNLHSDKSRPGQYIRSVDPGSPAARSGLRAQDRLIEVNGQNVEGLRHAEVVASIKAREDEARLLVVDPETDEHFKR", "assay": "holdup assay", "design": "key: below the threshold = too weak to quantify, mostly under pKd 3.1 to 4", "conditions": "plain residues with an end cap or a label only (N-terminal biotin on a linker: ado-ado)", "values": [
      {"binder": "RTQSSDSAYV", "note": "[GJD2, Q9UKL4]", "pKd": 3.49}
    ]},
    {"molecular_target": "T12, MPP2, Q14168", "T12 sequence (Q14168 180-250, limits assumed, looked up)": "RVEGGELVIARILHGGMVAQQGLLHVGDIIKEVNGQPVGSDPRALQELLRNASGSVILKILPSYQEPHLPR", "assay": "holdup assay", "design": "key: below the threshold = too weak to quantify, mostly under pKd 3.1 to 4", "conditions": "plain residues with an end cap or a label only (N-terminal biotin on a linker: ado-ado)", "values": [
      {"binder": "RTQSSDSAYV", "note": "[GJD2, Q9UKL4]", "pKd": "below the threshold"}
    ]},
    {"molecular_target": "LNX1_3, Q8TBB1", "sequence (Q8TBB1 500-596)": "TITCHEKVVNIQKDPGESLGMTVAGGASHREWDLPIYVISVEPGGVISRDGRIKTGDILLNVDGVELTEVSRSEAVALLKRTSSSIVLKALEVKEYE", "assay": "holdup assay", "design": "key: below the threshold = too weak to quantify, mostly under pKd 3.1 to 4", "conditions": "plain residues with an end cap or a label only (N-terminal biotin on a linker: ado-ado)", "values": [
      {"binder": "RTQSSDSAYV", "note": "[GJD2, Q9UKL4]", "pKd": 3.47}
    ]},
    {"molecular_target": "T13, GRIP1_4, Q9Y3R0", "T13 sequence (Q9Y3R0 467-571, limits assumed, looked up)": "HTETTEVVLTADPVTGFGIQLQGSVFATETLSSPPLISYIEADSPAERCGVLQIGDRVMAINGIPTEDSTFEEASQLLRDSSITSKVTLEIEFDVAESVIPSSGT", "assay": "holdup assay", "design": "key: below the threshold = too weak to quantify, mostly under pKd 3.1 to 4", "conditions": "plain residues with an end cap or a label only (N-terminal biotin on a linker: ado-ado)", "values": [
      {"binder": "RTQSSDSAYV", "note": "[GJD2, Q9UKL4]", "pKd": "below the threshold"}
    ]}
  ]
}
